From ChEMBL document CHEMBL1122571, “Design and synthesis of tetrahedral intermediate analogues as potential dihydroorotase inhibitors” (J Med Chem, 1984)

System: O=C1CC(C(=O)O)NC(=O)N1
Assay: Compound was evaluated for the inhibition of dihydroorotase enzyme from mouse Ehrlich ascites at the concentration of 10 uM and at pH 7.37

Multifunctional protein CAD (Mus musculus), B2RQC6
Km: 4 µM
